Experiments:
Assay in all cases: SEC
[1] = target: SARS-CoV-2 Nsp15 N278A (SARS-CoV-2)
[2] = target: SARS-CoV-2 Nsp15 S294A (SARS-CoV-2)
[3] = target: SARS-CoV-2 Nsp15 W333A (SARS-CoV-2)
[4] = target: SARS-CoV-2 Nsp15 Y343A (SARS-CoV-2)

For SARS-CoV-2 Nsp15 N278A (enzyme), the stoichiometry N [1] was 6.

Work on SARS-CoV-2 Nsp15 S294A (enzyme) yielded a stoichiometry N [2] of 6.

For SARS-CoV-2 Nsp15 W333A (enzyme), the stoichiometry N [3] was 6.

For SARS-CoV-2 Nsp15 Y343A (enzyme), the stoichiometry N [4] was 6.

Source: article PMC8385992
